Laboratory results reported in patent US20240317834A1, “COMPOSITIONS AND METHODS FOR NEUROLOGICAL DISEASES” (CODA BIOTHERAPEUTICS, INC., priority 2020, published 2024).

Tests used:
rat DRG neurons = experiment: Rheobase shift and evoked action potentials in rat DRG neurons (current clamp); assay type: cell-based
Protocol: Using whole cell manual patch clamp electrophysiology in HEK293 cells, rat DRG neurons and rat hippocampal neurons, the EC50 of the various engineered receptors disclosed herein to Ach and non-native ligands was measured using the Hill equation with peak current measurements from escalating doses of ligand. The rheobase shift was also measured in rat DRG neurons, which reflects the efficacy of the receptors. To calculate the rheobase, first, the amount of current that can produce an action potential was determined. Then the ligand was added, followed by a step wise increase in the current injected up to 700 pA.
For manual patch clamp experiments, Cells plated on coverslips were visualized at 10× and 40× on an inverted fluorescence microscope (Olympus). Recordings were made with an Axopatch 200B amplifier and Digidata 1550B (Molecular Devices) at RT using 3-6 MOhm glass patch electrodes (Sutter, BF150-86-10). Unless otherwise stated, recordings were made in extracellular solution (ECS) containing: 140 mM sodium chloride, 4 mM potassium chloride, 1 mM magnesium chloride, 2 mM calcium chloride, 10 mM HEPES, and 10 mM D-(+)-glucose (pH=7.3 with sodium hydroxide, osmolarity=305−315 mOsm). An 8-line reservoir (AutoMate Scientific) in combination with an 8-channel zero-dead-volume perfusion pencil (AutoMate Scientific) was used for perfusion. Data was acquired using pClamp software (Molecular Devices). Traces were either analyzed in Clampfit (Molecular Devices) or using custom Python code. Plotting and statistics were performed in GraphPad Prism.
DRG rheobase experiments were performed in current clamp mode using a potassium-based internal solution containing: 100 mM potassium D-gluconate, 28 mM potassium chloride, 1 mM magnesium chloride hexahydrate, 5 mM magnesium ATP, 10 mM HEPES, and 0.5 mM EGTA (pH=7.2 with potassium hydroxide, osmolarity=290-295 mOsm, calculated liquid junction potential=−13.5 mV). To measure DRG input resistance and rheobase, 500 ms current steps (−200 pA to 700 pA) were applied the membrane in the presence and absence of a compound. No holding current was applied to the membrane for cells included in the final datasets. Data were acquired at 10 kHz, with Bessel filter at 2 kHz and series resistance compensation at 100%. Rheobase was defined as the smallest depolarizing current injection required to cause an action potential to fire in the cell. In a subset of cells, the rheobase was ambiguous, since the action potential appeared to be graded in amplitude. In these cases, a […] of the trace clarified the rheobase. Input resistance was measured from the negative current injections, calculated as the difference in membrane potential at steady state divided by the current injection amplitude and then averaged across the four negative current steps for each recording. Resting membrane potential was measured from the first 100 ms of each sweep, averaged for each recording, and corrected for liquid junction potential. One-way ANOVA with multiple comparisons was used to test for significance of difference in rheobase and input resistance between baseline, drug, and wash conditions.

Lenti-X 293T cells = experiment: YFP fluorescence quenching anion reporter plate reader assay of engineered receptors stimulated with acetylcholine or a non-native ligand; assay type: cell-based
How it was run: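 Lenti-X 293T cells carrying a YFP anion reporter were transiently transfected with channel DNA and assayed the next day in HEPES-buffered ECS at pH 7.2. Ligand (acetylcholine or non-native ligand) was added in NaI-substituted ECS. Percent quench was the mean of the last 10 s relative to the 15 s pre-addition baseline.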

B1: CODA1039: engineered chimeric LGIC receptor, Y115E, Y210W in SEQ ID NO: 33 (protein)
chain: MRCSPGGVWLALAASLLHVSLQGEFQRKLYKELVKNYNPLERPVANDSQPLTVYFSLSLLQIMDVDEKNQVLTTNIWLQMSWTDHYLQWNVSEYPGVKTVRFPDGQIWKPDILLENSADERFDATFHTNVLVNSSGHCQYLPPGIFKSSCPMDLKNFPMDVQTCKLKFGSWSYGGWSLDLQMQEADISGYIPNGEWDLVGIPGKRSERFWECCKEPYPDVTFTVTMRRRMGYYLIQMYIPSLLIVILSWISFWINMDAAPARVGLGITTVLTMTTQSSGSRASLPKVSYVKAIDIWMAVCLLFVFSALLEYAAVNFVSRQHKELLRFRRKRRHHKSPMLNLFQEDEAGEGRFNFSAYGMGPACLQAKDGISVKGANNSNTTNPPPAPSKSPEEMRKLFIQRAKKIDKISRIGFPMAFLIFNMFYWIIYKIVRREDVHNQ
modifications: synthetic sequence of chimeric LGIC
In the case of B1, the “Rheobase Shift; Rat DRG Neurons, +TC-5619 @ EC90” value (rat DRG neurons; +TC-5619 @ EC90) is reported as 453 ± 58 pA, the “Rheobase Shift; Rat DRG Neurons, Baseline” value (rat DRG neurons; Baseline, no ligand) is reported as 88 ± 9 pA and the “YFP fluorescence quenching using CNL001” value (Lenti-X 293T cells; 1 nM CNL001, first column) is reported as −1.12%. The “YFP fluorescence quenching using CNL001” value (Lenti-X 293T cells; 1 nM CNL001, second column) was −3.941%, the “YFP fluorescence quenching using TC-5619/Bradanicline” value (Lenti-X 293T cells; 1 nM brd) was −5.55% and the “YFP fluorescence quenching using TC-5619/Bradanicline” value (Lenti-X 293T cells; 3 nM brd) was 6.78%. For the same molecule, the “YFP fluorescence quenching using Varenicline” value (Lenti-X 293T cells; 3 nM var, first column) was −10.926, the “YFP fluorescence quenching using Varenicline” value (Lenti-X 293T cells; 3 nM var, second column) was −7.395 and the “YFP fluorescence quenching using CNL001” value (Lenti-X 293T cells; 10 nM CNL001, first column) was 6.275%. For the same molecule, the “YFP fluorescence quenching using CNL001” value (Lenti-X 293T cells; 10 nM CNL001, second column) was 11.943%, the “YFP fluorescence quenching using TC-5619/Bradanicline” value (Lenti-X 293T cells; 10 nM brd) was −2.7% and the “YFP fluorescence quenching using TC-5619/Bradanicline” value (Lenti-X 293T cells; 30 nM brd) was 34.43%. The “YFP fluorescence quenching using Facinicline” value (Lenti-X 293T cells; 30 nM fac) was −13.46, the “YFP fluorescence quenching using Varenicline” value (Lenti-X 293T cells; 30 nM var, first column) was −5.661 and the “YFP fluorescence quenching using Varenicline” value (Lenti-X 293T cells; 30 nM var, second column) was −1.244. For the same molecule, the “YFP fluorescence quenching using CNL001” value (Lenti-X 293T cells; 50 nM CNL001, first column) was 12.949%, the “YFP fluorescence quenching using CNL001” value (Lenti-X 293T cells; 50 nM CNL001, second column) was 18.635% and the “YFP fluorescence quenching using ABT-126” value (Lenti-X 293T cells; 50 nM abt) was −17.32%. For the same molecule, the “YFP fluorescence quenching using CNL001” value (Lenti-X 293T cells; 100 nM CNL001, first column) was 17.576%, the “YFP fluorescence quenching using CNL001” value (Lenti-X 293T cells; 100 nM CNL001, second column) was 18.319% and the “YFP fluorescence quenching using CNL002” value (Lenti-X 293T cells; 100 nM CNL002) was 21.85%. The “YFP fluorescence quenching using ABT-126” value (Lenti-X 293T cells; 100 nM abt) was −13.93%, the “YFP fluorescence quenching using AZD-0328” value (Lenti-X 293T cells; 100 nM azd0328) was −10.45% and the “YFP fluorescence quenching using ABT-126” value (Lenti-X 293T cells; 300 nM abt) was 9.9%. The “YFP fluorescence quenching using AZD-0328” value (Lenti-X 293T cells; 300 nM azd0328) was −13%, the “YFP fluorescence quenching using TC-5619/Bradanicline” value (Lenti-X 293T cells; 300 nM brd) was 70.05% and the “YFP fluorescence quenching using Facinicline” value (Lenti-X 293T cells; 300 nM fac) was 5.43. The “YFP fluorescence quenching using Varenicline” value (Lenti-X 293T cells; 300 nM var, first column) was −4.555, the “YFP fluorescence quenching using Varenicline” value (Lenti-X 293T cells; 300 nM var, second column) was 1.081 and the “YFP fluorescence quenching using ABT-126” value (Lenti-X 293T cells; 500 nM abt) was 36.97%. The “YFP fluorescence quenching using Varenicline” value (Lenti-X 293T cells; 500 nM var, first column) was 9.172, the “YFP fluorescence quenching using Varenicline” value (Lenti-X 293T cells; 500 nM var, second column) was 12.561 and the “YFP fluorescence quenching using CNL001” value (Lenti-X 293T cells; 1 uM CNL001, first column) was 19.329%. For the same molecule, the “YFP fluorescence quenching using CNL001” value (Lenti-X 293T cells; 1 uM CNL001, second column) was 20.672%, the “YFP fluorescence quenching using CNL002” value (Lenti-X 293T cells; 1 uM CNL002) was 47.37% and the “YFP fluorescence quenching using ABT-126” value (Lenti-X 293T cells; 1 uM abt) was 48.37%. The “YFP fluorescence quenching using TC-6987” value (Lenti-X 293T cells; 1 uM tc6987) was 7.26, the “YFP fluorescence quenching using Varenicline” value (Lenti-X 293T cells; 1 uM var, first column) was 7.139 and the “YFP fluorescence quenching using Varenicline” value (Lenti-X 293T cells; 1 uM var, second column) was 12.664. The “YFP fluorescence quenching using ABT-126” value (Lenti-X 293T cells; 3 uM abt) was 50.5%, the “YFP fluorescence quenching using ABT-126” value (Lenti-X 293T cells; 10 uM abt) was 58.13% and the “YFP fluorescence quenching using TC-6987” value (Lenti-X 293T cells; 10 uM tc6987) was 11. For the same molecule, the “YFP fluorescence quenching using CNL002” value (Lenti-X 293T cells; 30 uM CNL002) was 59.97%, the “YFP fluorescence quenching using ABT-126” value (Lenti-X 293T cells; 30 uM abt) was 64.1% and the “YFP fluorescence quenching using AZD-0328” value (Lenti-X 293T cells; 30 uM azd0328) was 30.76%. The “YFP fluorescence quenching using Facinicline” value (Lenti-X 293T cells; 30 uM fac) was 49.06, the “YFP fluorescence quenching using ABT-126” value (Lenti-X 293T cells; 50 uM abt) was 66.67% and the “YFP fluorescence quenching using ABT-126” value (Lenti-X 293T cells; 100 uM abt) was 68.63%. The “YFP fluorescence quenching using TC-6987” value (Lenti-X 293T cells; 500 uM tc6987) was 7.97, the “percent quench of YFP fluorescence, 30 nM TC-6683” value (Lenti-X 293T cells; TC-6683 30 nM) was −1.608% and the “percent quench of YFP fluorescence, 300 nM TC-6683” value (Lenti-X 293T cells; TC-6683 300 nM) was −3.491%. The “percent quench of YFP fluorescence, 3 uM TC-6683” value (Lenti-X 293T cells; TC-6683 3 uM) was −6.153%, the “percent quench of YFP fluorescence, 30 uM TC-6683” value (Lenti-X 293T cells; TC-6683 30 uM) was −9.263% and the “percent quench of YFP fluorescence, 100 uM TC-6683” value (Lenti-X 293T cells; TC-6683 100 uM) was −9.19%. The “percent quench of YFP fluorescence, 10 uM ach” value (Lenti-X 293T cells; acetylcholine 10 uM) was −2.97%, the “percent quench of YFP fluorescence, 50 uM ach” value (Lenti-X 293T cells; acetylcholine 50 uM) was −3.94% and the “percent quench of YFP fluorescence, 100 uM ach” value (Lenti-X 293T cells; acetylcholine 100 uM) was 0.35%. For the same molecule, the “percent quench of YFP fluorescence, 300 uM ach” value (Lenti-X 293T cells; acetylcholine 300 uM) was −4.13%, the “percent quench of YFP fluorescence, 500 uM ach” value (Lenti-X 293T cells; acetylcholine 500 uM) was −5.18% and the “percent quench of YFP fluorescence, 1 mM ach” value (Lenti-X 293T cells; acetylcholine 1 mM) was 1.21%. For the same molecule, the “percent quench of YFP fluorescence, 3 mM ach” value (Lenti-X 293T cells; acetylcholine 3 mM) was 26.69%.
